According to article doi:10.1101/2022.04.25.489347 (bioRxiv, 2022):

B1: AtFKBP43 NTD (1-110) (domain or fragment, Arabidopsis thaliana, UniProt F4J9Q6 1-110, looked up)
chain: MAFWGVEVKPGKTFTLKNNEATGIRRLHLSQATLGHGTATNRSILQCNVGNKSPLLLCVLTPDKVDSCQLNLEFEETDEVIFSVIGPRSVHLTGYFLGRSTGFRPNDDES
B2: AtFKBP43 NTD (1-96) (domain or fragment, Arabidopsis thaliana, UniProt F4J9Q6 1-96, looked up)
chain: MAFWGVEVKPGKTFTLKNNEATGIRRLHLSQATLGHGTATNRSILQCNVGNKSPLLLCVLTPDKVDSCQLNLEFEETDEVIFSVIGPRSVHLTGYF
B3: AtFKBP43 (1-136) (domain or fragment, Arabidopsis thaliana, UniProt F4J9Q6 1-136, looked up)
chain: MAFWGVEVKPGKTFTLKNNEATGIRRLHLSQATLGHGTATNRSILQCNVGNKSPLLLCVLTPDKVDSCQLNLEFEETDEVIFSVIGPRSVHLTGYFLGRSTGFRPNDDESESFGEDIVDTDMEKGSSDDYDYSDSF
B4: AtFKBP43 (1-164) (domain or fragment, Arabidopsis thaliana, UniProt F4J9Q6 1-164, looked up)
chain: MAFWGVEVKPGKTFTLKNNEATGIRRLHLSQATLGHGTATNRSILQCNVGNKSPLLLCVLTPDKVDSCQLNLEFEETDEVIFSVIGPRSVHLTGYFLGRSTGFRPNDDESESFGEDIVDTDMEKGSSDDYDYSDSFINDDDPAVRGSHVSSTDDDEISIKEMTA

Legend:
crystal structure = molecular target: the molecule itself; assay: crystal structure
AUC = molecular target: the molecule itself; assay: AUC
H3/H4 tetramer [1] = molecular target: T1, H3/H4 tetramer (UniProt P84233 1-136; P62799 1-103); assay: AUC
H2A/H2B dimer [2] = molecular target: T2, H2A/H2B dimer (UniProt P06897 1-130; P02281 1-126); assay: AUC
H3/H4 tetramer [3] = molecular target: T1, H3/H4 tetramer; assay: ITC
H2A/H2B dimer [4] = molecular target: T2, H2A/H2B dimer; assay: ITC

Binder | stoichiometry N (crystal structure) | stoichiometry N (AUC) | stoichiometry N (H3/H4 tetramer [1]) | stoichiometry N (H2A/H2B dimer [2]) | Kd (H3/H4 tetramer [3]) [nM] | Kd (H2A/H2B dimer [4]) [nM]
B1 | 5 |  |  |  |  | 
B2 |  | 5 |  |  |  | 
B3 |  | 5 | 1 | 1 | 610 ± 40 | 460 ± 30
B4 |  | 5 | 1 | 1 | 18 ± 2 | 60 ± 6
